From PMC11330476

Experiments:
[1] = biological target: PneKC without His tag, co-expressed with N-terminally His-tagged PneA (Streptococcus pneumoniae); test: negative-stain EM
[2] = biological target: T1, PneKC, wild type, N-terminally His-tagged, expressed without PneA (apo PneKC) (Streptococcus pneumoniae); test: negative-stain EM
[3] = biological target: T1, PneKC, wild type, N-terminally …; test: SEC
[4] = biological target: PneKC, wild type, N-terminal His7 tag, co-expressed with PneA from pQLinkN-PneKC-PneA (Streptococcus pneumoniae); test: SEC

In the case of “PneKC without His tag, co-expressed with N-terminally His-tagged PneA (enzyme)”, the stoichiometry N [1] is reported as 2.

B1: PneKC, wild type, N-terminally His-tagged, expressed without PneA (apo PneKC) (enzyme)
chain: MDYNFNLEHPFFFTNNDYSTDTSIKYQASLPFNWHEVMNNDEWVYQYPIGKFVERQGWKIHISSEYNSSHELLQDVAKICHEMRIPFKHLSTEDKFIMRNGKLVSRGFSGKFITCYPNQNELESVLQRLESALKQYNGPYILSDKRWDEAPIYLRYGVFRPSRDDEKKVAIDELIVGDEVVKDERLPVFKIPKGIVPPDFLNKWLDKKDKKQGDFPFIIDNAIRFSNSGGIYNARLKEDGKKIILKEARPYTGLGFDGTYSSEKLASECKALKILNEWSEAPKIYWHGKIWEHTFLGIEHMKGVPLNRWVTNNFPLYEVVDKTKDYLLRVSKIVEKLIDLTNKFHSENVYHQDLHLGNILVKDEDEISIIDWEQAVFSNDEKVVHKVAAPGFRAWRETLPSEIDWYGIRQIAHYLYMPLVTTSDLTYNYVSQTRIEGKKLFESLGYTREHIDYVESLLSYLDSKCPQIENISRKKVLKPMHEIRTIESEQDIQDFIIKLLRGFTLTYGQWRKEFQSRFFPVHYYGLNFNQGIAFSDLAILWSYQQLAKKVKNFKFDDYYEIRTQVINEAVNNFKKSSLSGLFDGKIGTIWLIYEFGEIDRAVELFTTHFIEIFENSQNKNLYSGQAGILLVGLYFLSKGEIDNKLGEEILIRLREYTLNYIENPETFCKVGASDVQSNDPYENFGGLLYGHAGVAWLFGEAYKLTGESIYKNGLELAVDKELVAYKVDSNNSLQYSQGHRLLPYLATGSAGLLLLINRNKEILSSKYLKYLTSLERATDVVFCVLPGLFNGFCGLEVANNIYSDIDDNFSGQKKLIEQLYRYLCVIEEGFVIAGDNGLKITTDIASGFAGVAIGLVSIMDNKLTILPQI
modifications: not checked
B1 showed a stoichiometry N [2] of 2 and a stoichiometry N [3] of 2.

B2: PneKC, wild type, N-terminal His7 tag, co-expressed with PneA from pQLinkN-PneKC-PneA (enzyme)
chain: MDYNFNLEHPFFFTNNDYSTDTSIKYQASLPFNWHEVMNNDEWVYQYPIGKFVERQGWKIHISSEYNSSHELLQDVAKICHEMRIPFKHLSTEDKFIMRNGKLVSRGFSGKFITCYPNQNELESVLQRLESALKQYNGPYILSDKRWDEAPIYLRYGVFRPSRDDEKKVAIDELIVGDEVVKDERLPVFKIPKGIVPPDFLNKWLDKKDKKQGDFPFIIDNAIRFSNSGGIYNARLKEDGKKIILKEARPYTGLGFDGTYSSEKLASECKALKILNEWSEAPKIYWHGKIWEHTFLGIEHMKGVPLNRWVTNNFPLYEVVDKTKDYLLRVSKIVEKLIDLTNKFHSENVYHQDLHLGNILVKDEDEISIIDWEQAVFSNDEKVVHKVAAPGFRAWRETLPSEIDWYGIRQIAHYLYMPLVTTSDLTYNYVSQTRIEGKKLFESLGYTREHIDYVESLLSYLDSKCPQIENISRKKVLKPMHEIRTIESEQDIQDFIIKLLRGFTLTYGQWRKEFQSRFFPVHYYGLNFNQGIAFSDLAILWSYQQLAKKVKNFKFDDYYEIRTQVINEAVNNFKKSSLSGLFDGKIGTIWLIYEFGEIDRAVELFTTHFIEIFENSQNKNLYSGQAGILLVGLYFLSKGEIDNKLGEEILIRLREYTLNYIENPETFCKVGASDVQSNDPYENFGGLLYGHAGVAWLFGEAYKLTGESIYKNGLELAVDKELVAYKVDSNNSLQYSQGHRLLPYLATGSAGLLLLINRNKEILSSKYLKYLTSLERATDVVFCVLPGLFNGFCGLEVANNIYSDIDDNFSGQKKLIEQLYRYLCVIEEGFVIAGDNGLKITTDIASGFAGVAIGLVSIMDNKLTILPQI
modifications: not checked
B2 gave a stoichiometry N [4] of 2.
